In article PMC4155686, “Oleoyl Coenzyme A Regulates Interaction of Transcriptional Regulator RaaS (Rv1219c) with DNA in Mycobacteria*” (The Journal of Biological Chemistry, 2014):

T1: RaaS wild type (Mycobacterium tuberculosis, UniProt O86312 1-212)
T1 sequence: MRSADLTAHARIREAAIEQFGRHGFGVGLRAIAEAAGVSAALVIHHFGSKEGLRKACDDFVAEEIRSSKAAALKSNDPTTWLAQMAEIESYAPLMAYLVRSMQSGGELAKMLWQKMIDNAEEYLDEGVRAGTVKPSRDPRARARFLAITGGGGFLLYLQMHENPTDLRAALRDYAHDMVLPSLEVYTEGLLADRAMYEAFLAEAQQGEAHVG

B1: RaaS (regulator of antimicrobial-assisted survival), Rv1219c, wild type (natural protein)
chain: T1 sequence
notes: also called wild-type RaaS
B2: Pr14F/Pr14R (ATTO 647N) (dsDNA)
DNA 1: GGGATGAACGTACGTTTAATATCCTGAACATGCGTTCAG
DNA 2: GGGCTGAACGCATGTTCAGGATATTAAACGTACGTTCAT

What was measured:
[1] = target: the molecule itself; assay: small-angle X-ray scattering; protein alone in solution at 1 and 3 mg/ml, data extrapolated to infinite dilution; apparent molecular mass from I(0)
RaaS wild type = target: T1, RaaS wild type; assay: fluorescence anisotropy; 4 nM DNA; details: protein: recombinant; chain copies: 2

| Binder | stoichiometry N [1] | Kd (RaaS wild type) [µM] |
| --- | --- | --- |
| B1 | 2 |  |
| B2 |  | 0.031 ± 0.006 |
